B1: EHEE_rd2_0196 (parent)
chain: TETRTFDSEEEAKKAQKEAEKQGRTVTITRRDDRWEVRFD

Variants of: B1
Experiment: folding stability dG (cDNA display proteolysis); higher = more stable
Details: PBS, room temperature

Folding stability dG [kJ/mol]: each site, then its substitutions
T25: P 9.26 | S 12.1 | D 8.24 | I 12.5 | K 13.1 | N 11.3 | G 9.72 | V 12.9 | M 11.2 | A 11.8 | R 13.9 | Q 11.8 | H 13.2 | L 11.6 | F 10.2 | E 9.53
Q22: N 12.6 | C 13.6 | F 11.7 | S 12.2 | V 11.8 | A 12.9 | L 13.3 | G 10.8 | D 12 | K 11.4 | M 13.6 | H 12.5 | W 11.7 | T 11.8 | R 11.9 | I 11.9 | P 6.47 | E 12.8 | Y 11.4
E18: W 11 | K 9.88 | N 10.3 | D 12 | T 10.1 | G 7.31 | Y 9.67 | A 11.7 | V 10.8 | Q 11.1 | P 2.25 | M 11.8 | R 10.3 | L 11.7 | F 9.7 | C 12.5 | I 11.5 | H 10.7 | S 9.95
K21: M 13 | G 12.8 | A 14.3 | N 12.4 | V 11.4 | L 13.5 | H 11.8 | P 4.64 | Q 13 | F 11.1 | D 12.9 | I 11.8 | Y 11.1 | S 13.4 | E 13.3 | R 13 | W 10.7 | T 11.9
G23: P 2.86 | F 7.59 | E 4.66 | N 8.39 | C 10.3 | L 6.15 | Q 6.99 | T 3.8 | A 6.51 | W 6.84 | D 5.83 | M 6.57 | R 6.84 | V 3.59 | I 3.29 | S 6.57 | K 6.72 | H 8.97 | Y 7.33
A12: R 0.36 | P 0.895 | D 0.251 | K 1.01 | M 7.93 | G 3.46 | N 0.925 | W 3.37 | I 3.03 | V 8.26 | T 4.35 | F 4.4 | S 4.42 | L 6.21 | H 0.582 | E 0.849 | Q 0.657 | Y 4.52
E20: L 13.1 | P 3.1 | H 11.1 | C 11.7 | F 11.6 | D 8.36 | Y 10.7 | Q 12 | V 11.2 | I 11.9 | W 12.3 | A 12 | R 10.3 | G 8.93 | T 10.5 | N 10.6 | S 10.3 | M 12.8 | K 10
A19: K 5.55 | M 12.7 | R 5.06 | P 1.87 | L 14.2 | D 5.89 | S 8.25 | N 7.18 | F 13.1 | G 11.5 | Y 13.6 | V 7.46 | W 12.8 | H 9.15 | Q 8.93 | T 5.31 | E 9.55 | I 10.3
K14: F 12.6 | I 12.8 | V 12.3 | S 12.1 | E 13.2 | C 14.5 | W 12.6 | T 12.2 | P 1.49 | Y 12.3 | G 10.5 | M 13.5 | L 13.5 | A 13.8 | N 12.8 | R 12.6 | D 12.2 | Q 13.5 | H 12.8
K17: G 11.2 | M 13.4 | T 12.2 | N 11.8 | I 13.5 | E 13.3 | Y 13.5 | P 2.2 | A 13.6 | V 13.2 | S 12.6 | F 13.1 | Q 12.9 | D 12.2 | W 13.3 | H 12.5 | R 13.1 | L 13.6
R24: K 12.6 | D 9.58 | G 8.07 | E 8.35 | L 13.5 | T 9.28 | W 13.5 | F 15 | I 13.5 | V 11.9 | M 13.9 | P 1.91 | H 12.5 | N 8.9 | A 10.7 | Q 11.9 | S 9.18 | Y 15.2
K13: M 13.3 | L 14.7 | D 8.74 | W 12.4 | S 10.2 | Q 12.4 | E 11 | F 13.5 | C 12.8 | H 11.4 | I 14.1 | T 11.5 | N 11.1 | R 13.1 | Y 13.7 | G 8.45 | A 10.6 | P 0.439 | V 13.4
E10: D 11.6 | K 10.3 | P 7.85 | H 10.5 | A 12 | I 10.8 | G 9.25 | R 9.54 | T 8.54 | V 10.8 | N 9.06 | Q 11.2 | C 12.7 | F 11.2 | S 9.13 | L 10.5 | W 12.3 | M 10.8 | Y 11.3
E9: Q 9.11 | M 9.97 | G 4.3 | P 8.05 | Y 15 | A 8.43 | R 6.23 | F 14.3 | N 5.28 | H 9.56 | L 13.9 | D 6.14 | W 14.1 | K 6.93 | V 9.43 | I 11.4 | T 3.44 | S 5.94
E11: D 12.4 | Y 6.12 | R 6.16 | M 10.3 | L 10 | K 9.23 | F 6.14 | Q 10.6 | S 9.14 | N 8.2 | G 9.79 | A 11.5 | W 5.36 | V 5.99 | I 6.11 | T 7.31 | P 3.22 | H 6.73
S8: F 7.53 | E 6.94 | T 14.1 | V 7.45 | K 8.81 | D 9.5 | M 6.8 | N 11.7 | I 7.4 | W 4.74 | G 6.51 | P 0.301 | Y 6.85 | Q 7.61 | A 7.02 | R 8.88 | L 8.47 | H 8.86
A15: I 11.2 | T 8.55 | H 11.2 | P 1.17 | R 6.11 | G 4.95 | E 9.38 | S 9.12 | Q 8.72 | D 4.74 | M 11.7 | F 17.7 | L 11.6 | K 6.05 | Y 16.5 | W 14.1 | V 12.2 | N 6.61
Q16: W 10.6 | A 16.4 | L 12.1 | K 12.7 | F 12.4 | C 12.5 | M 13.9 | G 12.5 | D 3.03 | Y 11.8 | V 13.3 | P 1.05 | S 11.2 | H 8.67 | T 9.5 | I 12.4 | E 10.2 | R 11 | N 3.95
D7: T 11.5 | W 13.4 | V 10.5 | Y 13.3

— the MegaScale stability set (Tsuboyama et al. 2023)
